Measured values reported in patent publication US20240002540A1.

What was measured:
[1] = target: FcγRI recombinant protein, His-tagged (UniProt P12314); test: SPR (Biacore), His-tagged receptor captured by anti-His antibody on CM5 chip, antibody as analyte
[2] = target: human CD3 on T cells (Jurkat cells; human peripheral blood CD4+ and CD8+ T-cells) (human) (UniProt P07766); test: flow cytometry on Jurkat cells

Sequence of FcγRI recombinant protein, His-tagged (P12314 16-288 limits assumed): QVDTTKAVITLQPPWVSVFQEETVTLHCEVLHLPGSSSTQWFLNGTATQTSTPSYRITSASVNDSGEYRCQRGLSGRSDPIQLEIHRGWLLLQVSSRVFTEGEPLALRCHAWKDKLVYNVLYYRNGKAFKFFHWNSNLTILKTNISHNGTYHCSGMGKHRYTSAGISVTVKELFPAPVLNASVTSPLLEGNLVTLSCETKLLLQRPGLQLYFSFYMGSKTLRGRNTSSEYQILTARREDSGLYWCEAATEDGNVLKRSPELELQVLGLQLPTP

Substance	Kd [1]	affinity, FACS (Jurkat) [2]
IgG4 isotype control (antibody)	14 nM	–
OKT3-hIgG1 (antibody)	–	0.27 nM
